Assay results from patent US20100209436.

Key:
[1] = test system: human OPA1 splice variant 7
[2] = test system: human OPA1 splice variant 4
[3] = test system: human OPA1 splice variant 8 (A210V polymorphism)
Chain of human OPA1 splice variant 8 (A210V polymorphism) (chain, as listed by the source A210V): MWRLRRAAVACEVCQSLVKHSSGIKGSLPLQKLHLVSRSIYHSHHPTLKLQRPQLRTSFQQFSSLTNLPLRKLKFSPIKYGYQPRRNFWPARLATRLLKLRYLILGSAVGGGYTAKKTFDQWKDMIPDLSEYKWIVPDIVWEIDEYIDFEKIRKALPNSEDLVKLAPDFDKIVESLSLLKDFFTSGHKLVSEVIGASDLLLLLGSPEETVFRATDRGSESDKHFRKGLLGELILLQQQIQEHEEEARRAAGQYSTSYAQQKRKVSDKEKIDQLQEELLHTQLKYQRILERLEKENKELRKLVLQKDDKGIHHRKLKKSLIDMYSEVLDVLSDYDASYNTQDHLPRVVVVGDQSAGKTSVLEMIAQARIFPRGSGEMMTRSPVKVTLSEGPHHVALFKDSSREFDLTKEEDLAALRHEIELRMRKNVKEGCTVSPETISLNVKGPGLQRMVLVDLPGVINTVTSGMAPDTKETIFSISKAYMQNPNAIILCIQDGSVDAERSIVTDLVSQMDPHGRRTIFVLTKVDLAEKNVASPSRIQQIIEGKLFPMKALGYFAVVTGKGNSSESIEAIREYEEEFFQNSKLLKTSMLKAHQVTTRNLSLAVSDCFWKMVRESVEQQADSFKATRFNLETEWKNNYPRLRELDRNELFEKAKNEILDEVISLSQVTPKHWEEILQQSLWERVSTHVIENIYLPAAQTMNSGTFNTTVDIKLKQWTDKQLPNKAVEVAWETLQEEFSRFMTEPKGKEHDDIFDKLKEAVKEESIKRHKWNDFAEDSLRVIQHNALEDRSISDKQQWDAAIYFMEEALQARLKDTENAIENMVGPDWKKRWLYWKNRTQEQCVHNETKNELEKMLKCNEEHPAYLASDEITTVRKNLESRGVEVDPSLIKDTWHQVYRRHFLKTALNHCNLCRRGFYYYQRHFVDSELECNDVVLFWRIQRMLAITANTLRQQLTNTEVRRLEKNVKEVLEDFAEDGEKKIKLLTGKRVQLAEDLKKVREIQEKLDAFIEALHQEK

Chain of human OPA1 splice variant 7 (chain, as listed by the source mutant): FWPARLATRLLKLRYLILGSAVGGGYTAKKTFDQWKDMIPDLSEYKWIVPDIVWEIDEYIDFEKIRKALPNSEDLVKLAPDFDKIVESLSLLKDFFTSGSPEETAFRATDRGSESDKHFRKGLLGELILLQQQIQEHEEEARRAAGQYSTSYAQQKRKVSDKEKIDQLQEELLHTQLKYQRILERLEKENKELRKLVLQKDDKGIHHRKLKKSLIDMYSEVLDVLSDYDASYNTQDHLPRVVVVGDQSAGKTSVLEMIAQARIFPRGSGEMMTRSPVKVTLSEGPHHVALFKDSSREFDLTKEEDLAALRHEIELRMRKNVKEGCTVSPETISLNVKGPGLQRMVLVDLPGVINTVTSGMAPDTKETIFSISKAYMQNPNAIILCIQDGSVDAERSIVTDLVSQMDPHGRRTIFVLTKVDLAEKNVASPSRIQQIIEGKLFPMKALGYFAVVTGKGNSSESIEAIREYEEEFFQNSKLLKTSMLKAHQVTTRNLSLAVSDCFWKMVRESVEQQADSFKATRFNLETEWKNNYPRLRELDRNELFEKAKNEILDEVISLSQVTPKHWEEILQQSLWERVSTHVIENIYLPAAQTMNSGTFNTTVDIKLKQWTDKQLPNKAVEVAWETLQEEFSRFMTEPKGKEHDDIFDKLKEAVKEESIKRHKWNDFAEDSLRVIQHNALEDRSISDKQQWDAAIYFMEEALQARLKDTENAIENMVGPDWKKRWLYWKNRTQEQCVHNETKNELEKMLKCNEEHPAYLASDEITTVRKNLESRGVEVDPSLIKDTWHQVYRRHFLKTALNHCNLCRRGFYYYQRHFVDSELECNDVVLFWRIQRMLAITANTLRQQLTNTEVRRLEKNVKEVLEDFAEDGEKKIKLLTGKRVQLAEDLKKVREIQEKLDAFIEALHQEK
Chain of human OPA1 splice variant 4 (chain, as listed by the source mutant): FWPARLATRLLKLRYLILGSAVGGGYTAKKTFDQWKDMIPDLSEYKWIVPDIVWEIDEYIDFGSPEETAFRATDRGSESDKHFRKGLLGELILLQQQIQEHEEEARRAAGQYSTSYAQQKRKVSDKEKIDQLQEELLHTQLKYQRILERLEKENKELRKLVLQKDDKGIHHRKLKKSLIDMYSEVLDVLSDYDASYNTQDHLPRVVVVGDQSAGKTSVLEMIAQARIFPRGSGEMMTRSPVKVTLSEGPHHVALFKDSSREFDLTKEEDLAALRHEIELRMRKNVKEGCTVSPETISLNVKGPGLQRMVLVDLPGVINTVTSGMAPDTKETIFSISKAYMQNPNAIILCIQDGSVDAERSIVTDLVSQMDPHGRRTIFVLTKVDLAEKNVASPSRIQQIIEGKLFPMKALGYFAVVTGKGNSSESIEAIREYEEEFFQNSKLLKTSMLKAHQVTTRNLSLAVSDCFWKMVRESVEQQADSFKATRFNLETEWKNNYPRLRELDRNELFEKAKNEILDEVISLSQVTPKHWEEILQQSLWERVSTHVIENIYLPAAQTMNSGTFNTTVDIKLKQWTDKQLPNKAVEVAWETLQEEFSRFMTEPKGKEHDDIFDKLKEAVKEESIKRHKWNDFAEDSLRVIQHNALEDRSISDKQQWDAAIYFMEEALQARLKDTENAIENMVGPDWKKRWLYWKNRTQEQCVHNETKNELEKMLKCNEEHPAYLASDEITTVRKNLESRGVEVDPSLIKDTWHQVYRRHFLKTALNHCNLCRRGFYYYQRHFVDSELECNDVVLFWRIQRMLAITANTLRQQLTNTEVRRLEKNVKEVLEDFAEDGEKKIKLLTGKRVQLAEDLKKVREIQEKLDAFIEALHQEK

Afg3l1^E567Q/paraplegin^E575Q complex (murine, both subunits proteolytically inactive)
OPA1 processing (western blot, Δyta10Δyta12 yeast) [1]: small OPA1 isoforms were not detected when both, Afg 3l1 and paraplegin, or Afg 3l2 and paraplegin, contained point mutations in their proteolytic centres

Afg3l2^E574Q/paraplegin^E575Q complex (murine, both subunits proteolytically inactive)
OPA1 processing (western blot, Δyta10Δyta12 yeast) [1]: small OPA1 isoforms were not detected when both, Afg 3l1 and paraplegin, or Afg 3l2 and paraplegin, contained point mutations in their proteolytic centres

hetero-oligomeric Afg3l1^E567Q/paraplegin complex (murine)
OPA1 processing (western blot, Δyta10Δyta12 yeast) [2]: splice variant 4 was processed only to a very minor extent by the Afg3l2^E567Q/paraplegin complex but not by the Afg3l1^E567Q/paraplegin complex | OPA1 processing (western blot, Δyta10Δyta12 yeast) [3]: A similar dependency was observed for splice variant 8 | OPA1 processing (western blot, Δyta10Δyta12 yeast) [1]: Slight OPA1 processing, in particular formation of S3, was detectable with both the Afg3l2^E567Q/paraplegin complex and the Afg3l1^E567Q/paraplegin complex

hetero-oligomeric Afg3l2^E574Q/paraplegin complex (murine)
OPA1 processing (western blot, Δyta10Δyta12 yeast) [2]: splice variant 4 was processed only to a very minor extent by the Afg3l2^E567Q/paraplegin complex | OPA1 processing (western blot, Δyta10Δyta12 yeast) [3]: A similar dependency was observed for splice variant 8 | OPA1 processing (western blot, Δyta10Δyta12 yeast) [1]: Slight OPA1 processing, in particular formation of S3, was detectable with both the Afg3l2^E567Q/paraplegin complex and the Afg3l1^E567Q/paraplegin complex

homo-oligomeric murine Afg3l2 complex (Yta10 (1-61)-Afg3l2 (36-802)-HA)
OPA1 processing (western blot, Δyta10Δyta12 yeast) [2]: Afg3l1 and Afg3l2 complexes mediated processing of OPA1 splice variants 4 and 8 in a similar manner | OPA1 processing (western blot, Δyta10Δyta12 yeast) [3]: Afg3l1 and Afg3l2 complexes mediated processing of OPA1 splice variants 4 and 8 in a similar manner | OPA1 processing (western blot, Δyta10Δyta12 yeast) [1]: expression of each of the murine subunits, Afg3l2 or Afg3l1, in Δyta10Δyta12 cells promoted OPA1 processing; expression of Afg3l2 preferentially led to the formation of the S3 isoform

proteolytically inactive murine Afg3l1^E567Q (Yta10 (1-61)-Afg3l1^E567Q (25-789)-Myc)
OPA1 processing (western blot, Δyta10Δyta12 yeast) [1]: Cleavage was abolished when point mutations were introduced in the proteolytic center of Afg3l1 or Afg3l2.

proteolytically inactive murine Afg3l2^E574Q (Yta10 (1-61)-Afg3l2^E574Q (36-802)-HA)
OPA1 processing (western blot, Δyta10Δyta12 yeast) [1]: Cleavage was abolished when point mutations were introduced in the proteolytic center of Afg3l1 or Afg3l2.
